This series concerns the molecule itself. Kind of series: crystal structure (chains A and B in the asymmetric unit) and size exclusion chromatography. A general note: SEC sorts molecules by how far they enter the pores of the column.

B1: PpArsN1 (ArsN1 arsinothricin N-acetyltransferase from Pseudomonas putida KT2440), one subunit (enzyme)
chain: MHSGIDIRVARPEDAEEIQIIYAPIVLNTAISFEEAVPSVEQMRERISTTLQTYPYLVAVREGRVVGYAYASQHRARAAYRWAVDVTVYVAEGQRRSGIARQLYDVLLPVLKRLGYRSAYAGIALPNEGSVGLHERLGFQHIGTFPQVGFKLDAWHDVGYWRFDFGDEGLHPEAPLGFLSQIPVPR
notes: Written as a single subunit; also called phoN1 gene product; not shown: C-terminal six histidine tag from vector pBAD-Myc/His-A; the vector-derived residues between protein and tag are not sta
With B1, the binding result is listed as “binds”.
